The RNAGym collection of RNA variant scans (doi:10.1073/pnas.2313332121)

B1: TPR t1 (parent)
chain: GACCAAUCUGCCCUCAGAGCUCGAGAACAUCUUCGGAUGCAGAGGAGGCAGGCUUCGGUGGCGCGAUAGCGCCAACGUCCUCAACCUCCAAUGCAUCCCACCACAUGAUGAUGCCUGAAGAGCCUUGGUUUUUUG

Variants of: B1
Assay: polymerase ribozyme fitness, log enrichment relative to wild type (log ratio); higher = more active; in vitro selection for triplet polymerase activity
Summary of the method: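 To select mutant libraries of each subunit of a heterodimeric triplet polymerase ribozyme, built by PCR and transcribed, each was annealed with a biotinylated primer, partner subunit and triplets, then incubated frozen at −7 °C. Extended constructs were gel-excised, captured on streptavidin beads and amplified by RT-PCR, in one round carried out in triplicate. Illumina sequencing of input and output libraries kept genotypes with ≥10 input reads and ≥1 read per output. Fitness is the base-2 logarithm of genotype enrichment relative to wild-type enrichment, from inverse-variance-weighted replicate averages.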

**Q.** Which “polymerase ribozyme fitness (log ratio)” value does the source give for GACCAAUCUGCCUUCAGAGCUCGAGAACAUCUUCGGAUGCAGAGGAGGCGGACUUCGGUGGCGCGAUAACGCCAACUUCCUCAACCUCCAAUGCAUCCCACCACAUGAUGAUGCCUGAAGAGCCUUGGUUUUUUG here?
**A.** -2.68

**Q.** Which “polymerase ribozyme fitness (log ratio)” value does the source give for GACCAAUCUGCCUUUAGAGCUCGAGAACAUCUUCGGAUGCAGAGGAGGCAGGCUUCGGAGGCGCGAUAGCGCCAACGUCCUCACCCUCCCAUGCAUCCCACCACAGGAUGAUGCCUGAAGAGCCUUGGUAUUUUG here?
**A.** -4.77

**Q.** Which “polymerase ribozyme fitness (log ratio)” value does the source give for GACCAAUCUGCCUUCAGAGUUCGAGAACAUCUUCGGAUGCAGAGGAGGCAGGCUUCGGUGGCGCGAUAGCGACAAAGUCCUCAACCUCCAAUGCAUCCCACCACAUGAUGAUGCCUGAAGAGCCUUGGUUUUUUG here?
**A.** -2.68

**Q.** With GACCAAUCUGCCUUCAGAGCUCGAGAACAUCUUCGGAUGCAGAGGAGGCGGGCUUCGGUGGCGCGAUAGUGCCAACGUUCUCAACGUCCAAUGCAUCCCACCACAUGAUGAUGCCUAAAGAGCCUUGGUUUUUUG as the variant, how does the “polymerase ribozyme fitness (log ratio)” value read?
**A.** -2.99

**Q.** For GACCAAUCUGCCUUCAGAGCUCGAGAGCAUCUUCGGAUGCAGAGGAAGCAGGCUUCGGUGGCGUGAUAGCGCCAACGUCCUCAACCUCCAAUGCAUCCCACCACAUGAUGAUGCCUGAAGAGCCUUGGUUUUUUG, which “polymerase ribozyme fitness (log ratio)” value is on record?
**A.** -3.03

**Q.** With GACCAAUCUGCCUUCAGAGUUCGAGAACAUCUUCGGAUGCAGAGGAGGCAGGCUUCGGUGUCGCGAUAGCGCCAACGUCCUCAACCUCCAAUGCAUCCCACCACAUGAUGAUGACUGAAGAGCCUUGGUUUUUUG as the variant, how does the “polymerase ribozyme fitness (log ratio)” value read?
**A.** 0.523

**Q.** With GACCAAUCUGCCUUCAGAGCUCGAGAACAUCUUCGGAUGCUGAGGAGGCAGGCUUCGGUGGCGCGAUAGCGCCAACGUCCUCAACCUCCAAUGCAUCCCACCACAUGAUGAUGCCUGAAGAGCCUCGGUUUUUUG as the variant, how does the “polymerase ribozyme fitness (log ratio)” value read?
**A.** -2.14

**Q.** For GACCAAUCUGCCUUCAGAGCUCGAGAACAUCUUCGGAUGCAGAGGAGGCAGGCUUCGGUGGCGCGAUAGCGCCAGGGUCCUCAACCUCCAAUGCAUCCCACCACAUGAUGAUGCCUGAAGAGCCUUGGUUUUAUG, which “polymerase ribozyme fitness (log ratio)” value is on record?
**A.** -0.431

**Q.** For GACCAAUCUGCCUUCAGAGUUCGAGAACAUCUUCGGAUGCAGAGGAGGCAGGCUUCGGUGGCGCGAUAGCGCCAACGUCCUCAACCUCCAAUGCAUCCCACCACAAGAUGAUGCCUGAAAAGCCUUGGUUUUUUG, which “polymerase ribozyme fitness (log ratio)” value is on record?
**A.** -1.72

**Q.** Which “polymerase ribozyme fitness (log ratio)” value does the source give for GACCAAUCUGCCUUCAGAGCUCGAGAACAUCUUCGGAUGCGGCGGAGGCAGGCUUCGGUGGCGCGAUAGCGCCAACGUCCUCAACCCCCAAUGCAUCCCACCACAUGAUGAUACCUGAAGAUCCUUGGUUUUUUG here?
**A.** -1.25

**Q.** With GACCAAUCUGCCUUCAGAGCUCGAGAACAUCUUCGGAUGCGGAGGAGGCAGGCUUCGGUUGCGCGAUAGCGCCAACGUCCUCAACCUCCAAUGCAUCCCACCACAUGAUGAUGCCUGAAGAGCCUUGGUUUUUUG as the variant, how does the “polymerase ribozyme fitness (log ratio)” value read?
**A.** -0.254

**Q.** With GACCAAUCUGCCUUCAGAGCUCGAGAACAUCUUCGGAUGCCGAGGAGGCAGUCUUCGGUCGCGCGAUAGCGCCAACGUCCUCAACCUCCAAUGCAUCCCACCACAUGAUGAUGCCUGAAAAGCCUGGGUUUUUUG as the variant, how does the “polymerase ribozyme fitness (log ratio)” value read?
**A.** -1.71

**Q.** Which “polymerase ribozyme fitness (log ratio)” value does the source give for GACCAAUCUGCCUUCAGAGCUCGAGAACAUCUUCGGUUGCAUAGGAGGCAGGCUUCGGUGGCUCGAUAGCGCCAACGUCCUCAAUCUCCAAUGCAUCCCACCACAUGAUGAAGCCUGAAGAGCCUUGGUUUUUUG here?
**A.** -3.9

**Q.** For GACCAAUCUGCCUUCAGAGCUCGAGAACAUCUUCGGAUGCAGAGGCGGCAGGCUUCGGUGGCGCGAUAGCGCCAACGUCCUCAACCUCCAAUGCAUCCCACCACAUGAUGAUGCCUGAAGAGCCUUGGUUUUUUG, which “polymerase ribozyme fitness (log ratio)” value is on record?
**A.** 0.0656

**Q.** Which “polymerase ribozyme fitness (log ratio)” value does the source give for GACCAAUCUGCCUUCAGAGCUGGAGAACAUCUUCGGAUGCUGAGGAGGCAGGCUUCGGUGGCGCGAUAGCGCCAACGGCCCCAACCUCCAAUGCAUCCCACCACAUGAUGAUGCCUGAAGAACCUUGGUUUUUUG here?
**A.** -4.41

**Q.** Which “polymerase ribozyme fitness (log ratio)” value does the source give for GACCAAUCUGCCUUCAGAGCUCGAGAACAUCUUCGGAUGCAGAGGUGGCAGGCUUCGGUGGCGCGAUAGCGCCAACGUCCUCAACCUCCAAUGCAUCCCACCACAUGAUGAUGCCUGAAGAGCCUUGGUGUUUUG here?
**A.** -2

**Q.** With GACCAAUCUGCCUUCAGAGCUCGAGAACUUCUUCGGAUGCAGAGGAGGCAGGCUUAGGUGGCGCAAUAGCGCCAACAUCCUCAACCUCCAAUGCAUCCCACCACAUGAUGAUGCCUGAAGAGCCUUGGUUUUUUG as the variant, how does the “polymerase ribozyme fitness (log ratio)” value read?
**A.** -6.34

**Q.** For GACCAAUCUGCCUUCAGAGCUCGAGAACAUCUUGGGAUGCAGAGGAGGCAGGCUUCGGUGGCGCGAUAGCGCCAACGUCCUCAACCUCCAAUGCAUCCCACCACAUGAUGAUGCCUGAAGAGCCUUGGUUUUAUG, which “polymerase ribozyme fitness (log ratio)” value is on record?
**A.** -4.86

**Q.** Which “polymerase ribozyme fitness (log ratio)” value does the source give for GACCAAUCUGCCUUGAGUGCUCGAGAACAUCUUCGGAUGCAGAGGAGGCAGGCUUCGGUGGCGCGUUAGCGCCAACGUCCUCAACCUCCAAUGCAUCCCACCACAUGAUGAUGCCUGAAGAGCCUUGGUUUUUUG here?
**A.** -5.7

**Q.** For GACCAAUCUGCCUUCAGAGCUCGAGAACAUCUUCGGGUGCAGAGGAGGCAGGCUUCGGUGGCGCGAUAGCGCCAACGUCCUCAACCUCCAAUGCAUCCCAUCACAUGAUGAUGCCUGAAGAGCCUUGGUUUUUUG, which “polymerase ribozyme fitness (log ratio)” value is on record?
**A.** -0.644

**Q.** For GACCAAUCUGCCUUCAGAGCUCGAGAACAUCUUCGGAUGCAGAGGAGGCUGGCUUCGGUGGCGCGAUAGCGCCAACGUCCUCAACCUGCAAUGCAUCCCACCACAUGAUGAAGCCUAAAGAGCCUUGGUUUUUUG, which “polymerase ribozyme fitness (log ratio)” value is on record?
**A.** -2.57
